Experimental findings from the RNAGym collection of RNA variant scans (doi:10.7554/elife.90254) are described below.

The labels stand for the following.
B1: OR4K15 (parent)
chain: GUUAACGGUCAUAGGCCAUGGAAACUAGGAGCACCAUUUCGCUGCCAGUGAAGAAAUGAACAAAGAAAAUCUGGGCCAGGCAGGCAUCAAAAGAAAUAGUCUUGCGCUCAACCAGAAAGUCUGUAAUCAUUUUAAGGGUA

Variants of B1 are the subject of this data set. The data set is described as follows: self-cleavage, relative activity (ratio to wild type); higher = more cleavage; in vitro, sequencing; the parent is a self-cleaving ribozyme.
GUUAACGGUCAUAGGCCAUGGAAACUAGGAGCACCAUUUCGCUGCCAGUGAAGAAAUGGACAAAGAAAAUCUGGGCUAGGCAGGCAUCAAAAGAAAUAGUCUUGCGCUCAACCAGAAAGUCUGUAAUCAUUUUAAGGGUA [A59G C77U]: the self-cleavage is 1.7.

For GUUAACGGUCAUAGGCCAUGGAAACUAGGAGCACCAUUUCGCUGCCAGUGAAGAAAUGGACAAAGAAAAUCUGGGCCAGGCAGGCAUCAAAAGAAAUAGUCUUGCGCUCAACUAGAAAGUCUGUAAUCAUUUUAAGGGUA [A59G C113U], the self-cleavage is 0.03.

Regarding GUUAACGGUCAUAGGCCAUGGAAACUAGGAGCACCAUUUCGCUGCCAGUGAAGAAAUGGACAAAGAAAAUCUGGGCCAAGCAGGCAUCAAAAGAAAUAGUCUUGCGCUCAACCAGAAAGUCUGUAAUCAUUUUAAGGGUA [A59G G79A], the self-cleavage was determined as 0.28.

Regarding GUUAACGGUCAUAGGCCAUGGAAACUAGGAGCACCAUUUCGCUGCCAGUGAAGAAAUGGACAAAGAAAAUCUGGGCCAGGCAGGCAUCAAAUGAAAUAGUCUUGCGCUCAACCAGAAAGUCUGUAAUCAUUUUAAGGGUA [A59G A92U], the self-cleavage turned out to be 1.08.

Take GUUAACGGUCAUAGGCCAUGGAAACUAGGAGCACCAUUUCGCUGCCAGUGAAGAAAUGGACAAAGAAAAUCUGGGCCAGGCAGGCAUCAAGAGAAAUAGUCUUGCGCUCAACCAGAAAGUCUGUAAUCAUUUUAAGGGUA [A59G A91G]: the self-cleavage was determined as 0.8.

On to GUUAACGGUCAUAGGCCAUGGAAACUAGGAGCACCAUUUCGCUGCCAGUGAAGAAAUGGACAAAGAAAAUCUGGGCCAGGCAGGCAUCAAAAGAAAUAGUCUUGCGCUCAACCAGAAAGUCUGUAAUCAUUUUAGGGGUA [A59G A135G], for which the self-cleavage was found to be 0.84.

Regarding GUUAACGGUCAUAGGCCAUGGAAACUAGGAGCACCAUUUCGCUGCCAGUGAAGAAAUGGACAAAGAAAAUCUGGGCCAGGCAGGCGUCAAAAGAAAUAGUCUUGCGCUCAACCAGAAAGUCUGUAAUCAUUUUAAGGGUA [A59G A86G], the self-cleavage worked out at 0.5.

For GUUAACGGUCAUAGGCCAUGGAAACUAGGAGCACCAUUUCGCUGCCAGUGAAGAAAUGGACAAAGAAAAUCUGGGCCAGGCAGGCCUCAAAAGAAAUAGUCUUGCGCUCAACCAGAAAGUCUGUAAUCAUUUUAAGGGUA [A59G A86C], the self-cleavage came to 0.64.

For the variant GUUAACGGUCAUAGGCCAUGGAAACUAGGAGCACCAUUUCGCUGCCAGUGAAGAAAUGGACAAAGAAAAUCUGGGCCAGGCAGGCUUCAAAAGAAAUAGUCUUGCGCUCAACCAGAAAGUCUGUAAUCAUUUUAAGGGUA [A59G A86U], the self-cleavage was 1.71.

GUUAACGGUCAUAGGCCAUGGAAACUAGGAGCACCAUUUCGCUGCCAGUGAAGAAAUGGACAAAGAAAAUCUGGGCCAGGCAGGCAUCAAAAGAAAUGGUCUUGCGCUCAACCAGAAAGUCUGUAAUCAUUUUAAGGGUA [A59G A98G]: the self-cleavage was 0.67.

Turning to GUUAACGGUCAUAGGCCAUGGAAACUAGGAGCACCAUUUCGCUGCCAGUGAAGAAAUGGACAAAGAAAAUCUGGGCCAGGCAGGCAUCAAAAGAAAUAGUCUUGCGCUCAACCAGAAAGUCUGUAAUCAUUUUGAGGGUA [A59G A134G], the self-cleavage worked out at 0.34.

Consider GUUAACGGUCAUAGGCCAUGGAAACUAGGAGCACCAUUUCGCUGCCAGUGAAGAAAUGGACAAAGAAAAUCUGGGCCAGGCAGGCAUCAAAAGAAAUAGUCUUGCGCUCAACCAGAAAGUCUGUAAUCAUUUUUAGGGUA [A59G A134U], for which the self-cleavage turned out to be 1.94.

For GUUAACGGUCAUAGGCCAUGGAAACUAGGAGCACCAUUUCGCUGCCAGUGAAGAAAUGGACAAAGAAAAUCUGGGCCAGGCAGGCAUCAAAAGAAAUAGUCUUGCGCUCAACCAGAAAGUCUGUAUUCAUUUUAAGGGUA [A59G A126U], the self-cleavage is 1.27.

As for GUUAACGGUCAUAGGCCAUGGAAACUAGGAGCACCAUUUCGCUGCCAGUGAAGAAAUGGACAAAGAAAAUCUGGGCCAGGCAGGCACCAAAAGAAAUAGUCUUGCGCUCAACCAGAAAGUCUGUAAUCAUUUUAAGGGUA [A59G U87C], the self-cleavage came to 1.19.

As to GUUAACGGUCAUAGGCCAUGGAAACUAGGAGCACCAUUUCGCUGCCAGUGAAGAAAUGGACAAAGAAAAUCUGGGCCAGGCAGGCAACAAAAGAAAUAGUCUUGCGCUCAACCAGAAAGUCUGUAAUCAUUUUAAGGGUA [A59G U87A], the self-cleavage amounted to 1.11.

As for GUUAACGGUCAUAGGCCAUGGAAACUAGGAGCACCAUUUCGCUGCCAGUGAAGAAAUGGACAAAGAAAACCUGGGCCAGGCAGGCAUCAAAAGAAAUAGUCUUGCGCUCAACCAGAAAGUCUGUAAUCAUUUUAAGGGUA [A59G U70C], the self-cleavage was found to be 0.84.

For GUUAACGGUCAUAGGCCAUGGAAACUAGGAGCACCAUUUCGCUGCCAGUGAAGAAAUGGACAAAGAAAAACUGGGCCAGGCAGGCAUCAAAAGAAAUAGUCUUGCGCUCAACCAGAAAGUCUGUAAUCAUUUUAAGGGUA [A59G U70A], the self-cleavage was 0.56.

Take GUUAACGGUCAUAGGCCAUGGAAACUAGGAGCACCAUUUCGCUGCCAGUGAAGAAAUGGACAAAGAAAAUCUGGGCCAGGCAGGCAUCAAAAGAAAUAGUCUUGCGCUCGACCAGAAAGUCUGUAAUCAUUUUAAGGGUA [A59G A110G]: the self-cleavage was 0.17.

As to GUUAACGGUCAUAGGCCAUGGAAACUAGGAGCACCAUUUCGCUGCCAGUGAAGAAAUGGACAAAGAAAAUCUGGGCCAGGCAGGCAUCAAAAGAAAUAGUCUUGCGCUCCACCAGAAAGUCUGUAAUCAUUUUAAGGGUA [A59G A110C], the self-cleavage stood at 0.44.

Consider GUUAACGGUCAUAGGCCAUGGAAACUAGGAGCACCAUUUCGCUGCCAGUGAAGAAAUGGACAAAGAAAAUCUGGGCCAGGCAGGCAUCAAAAGAAAUAGUCUUGCGCUCUACCAGAAAGUCUGUAAUCAUUUUAAGGGUA [A59G A110U], for which the self-cleavage came out at 0.97.

Consider GUUAACGGUCAUAGGCCAUGGAAACUAGGAGCACCAUUUCGCUGCCAGUGAAGAAAUGGACAAAGAAAAUCUGGGCCAGGCAGGCAUCAAAAGAAAUAGUCUUGCGCUCAACCAGAAAGUCUGUAAUCCUUUUAAGGGUA [A59G A129C], for which the self-cleavage is 0.55.

Turning to GUUAACGGUCAUAGGCCAUGGAAACUAGGAGCACCAUUUCGCUGCCAGUGAAGAAAUGGACAAAGAAAAUCUGGGCCAGGCAGGCAUCAAAAGAAAUAGUCUUGCGCUCAACCAGAAAGUCUGUAAUCUUUUUAAGGGUA [A59G A129U], the self-cleavage is 0.86.

In the case of GUUAACGGUCAUAGGCCAUGGAAACUAGGAGCACCAUUUCGCUGCCAGUGAAGAAAUGGACAAAGAAAAUCUGGGCCAGGCAGGCAUCAAAAGAAAUAGUCUUGCGCUCACCCAGAAAGUCUGUAAUCAUUUUAAGGGUA [A59G A111C], the self-cleavage worked out at 0.03.

As for GUUAACGGUCAUAGGCCAUGGAAACUAGGAGCACCAUUUCGCUGCCAGUGAAGAAAUGGACAAAGAAAAUCUGGGCCAGGCAGGCAUCAAAAGAAAUAGUCUUGCGCUCAGCCAGAAAGUCUGUAAUCAUUUUAAGGGUA [A59G A111G], the self-cleavage was 0.02.

GUUAACGGUCAUAGGCCAUGGAAACUAGGAGCACCAUUUCGCUGCCAGUGAAGAAAUGGACAAAGAAAAUCUGGGCCAGGCAGGCAUCAAAAGAAAUAGUCUUGCACUCAACCAGAAAGUCUGUAAUCAUUUUAAGGGUA [A59G G106A]: the self-cleavage amounted to 0.02.

For the variant GUUAACGGUCAUAGGCCAUGGAAACUAGGAGCACCAUUUCGCUGCCAGUGAAGAAAUGGACAAAGAAAAUCUGGGCCAGGCAGGCAUCAAAAGAAAUAGUCUUGCGCUCAACCCGAAAGUCUGUAAUCAUUUUAAGGGUA [A59G A114C], the self-cleavage was found to be 0.03.

GUUAACGGUCAUAGGCCAUGGAAACUAGGAGCACCAUUUCGCUGCCAGUGAAGAAAUGGACAAAGAAAAUCUGGGCCAGGCAGGCAUCAAAAGAAAUAGUCUUGCGCUCAACCAGAACGUCUGUAAUCAUUUUAAGGGUA [A59G A118C]: the self-cleavage is 0.9.

Regarding GUUAACGGUCAUAGGCCAUGGAAACUAGGAGCACCAUUUCGCUGCCAGUGAAGAAAUGGACAAAGAAAAUCUGGGCCAGGCAGGCAUCAAAAGAAAUAGUCUUGCGCUCAACCAUAAAGUCUGUAAUCAUUUUAAGGGUA [A59G G115U], the self-cleavage came out at 0.13.

Regarding GUUAACGGUCAUAGGCCAUGGAAACUAGGAGCACCAUUUCGCUGCCAGUGAAGAAAUGGACAAAGAAAAUCUGGGCCAGGCAGGCAUCAAAAGAAAUAGUUUUGCGCUCAACCAGAAAGUCUGUAAUCAUUUUAAGGGUA [A59G C101U], the self-cleavage amounted to 0.26.

Take GUUAACGGUCAUAGGCCAUGGAAACUAGGAGCACCAUUUCGCUGCCAGUGAAGAAAUGGACAAAGAAAAUCUGGGCCAGGCAGGCAUCAAAAGAGAUAGUCUUGCGCUCAACCAGAAAGUCUGUAAUCAUUUUAAGGGUA [A59G A95G]: the self-cleavage is 1.68.

With GUUAACGGUCAUAGGCCAUGGAAACUAGGAGCACCAUUUCGCUGCCAGUGAAGAAAUGGACAAAGAAAAUCUGGGCCAGGCAGGCAUCAAAAGAAAUAGUCUUGCGCUCAACCAGAGAGUCUGUAAUCAUUUUAAGGGUA [A59G A117G], the self-cleavage was 1.71.

With GUUAACGGUCAUAGGCCAUGGAAACUAGGAGCACCAUUUCGCUGCCAGUGAAGAAAUGGACAAAGAAAAUUUGGGCCAGGCAGGCAUCAAAAGAAAUAGUCUUGCGCUCAACCAGAAAGUCUGUAAUCAUUUUAAGGGUA [A59G C71U], the self-cleavage was determined as 0.22.

On to GUUAACGGUCAUAGGCCAUGGAAACUAGGAGCACCAUUUCGCUGCCAGUGAAGAAAUGGACAAAGAAAAUCUGGGCCAGGCAGGCAUCAAAAGAAAUAGUCUUGCGCUCAACCAGGAAGUCUGUAAUCAUUUUAAGGGUA [A59G A116G], for which the self-cleavage turned out to be 0.77.

Consider GUUAACGGUCAUAGGCCAUGGAAACUAGGAGCACCAUUUCGCUGCCAGUGAAGAAAUGGACAAAGAAAAUCUGGGCCAGGCAGGCAUCAAAAGAAAUAGUCUUGCGCUCAACCAGUAAGUCUGUAAUCAUUUUAAGGGUA [A59G A116U], for which the self-cleavage was 0.32.

As to GUUAACGGUCAUAGGCCAUGGAAACUAGGAGCACCAUUUCGCUGCCAGUGAAGAAAUGGACAAAGAAAAUCUGGGCCAGGCAGGCAUCAAAAGAAAUAGUCUUGCGCUGAACCAGAAAGUCUGUAAUCAUUUUAAGGGUA [A59G C109G], the self-cleavage came to 0.03.

Consider GUUAACGGUCAUAGGCCAUGGAAACUAGGAGCACCAUUUCGCUGCCAGUGAAGAAAUGGACAAAGAAAAUCAGGGCCAGGCAGGCAUCAAAAGAAAUAGUCUUGCGCUCAACCAGAAAGUCUGUAAUCAUUUUAAGGGUA [A59G U72A], for which the self-cleavage turned out to be 0.05.

Regarding GUUAACGGUCAUAGGCCAUGGAAACUAGGAGCACCAUUUCGCUGCCAGUGAAGAAAUGGACAAAGAAAAUCUGGGCCAGGCAGGCAUCGAAAGAAAUAGUCUUGCGCUCAACCAGAAAGUCUGUAAUCAUUUUAAGGGUA [A59G A89G], the self-cleavage was 1.09.

Regarding GUUAACGGUCAUAGGCCAUGGAAACUAGGAGCACCAUUUCGCUGCCAGUGAAGAAAUGGACAAAGAAAAUCUGGGCCUGGCAGGCAUCAAAAGAAAUAGUCUUGCGCUCAACCAGAAAGUCUGUAAUCAUUUUAAGGGUA [A59G A78U], the self-cleavage stood at 0.28.

For GUUAACGGUCAUAGGCCAUGGAAACUAGGAGCACCAUUUCGCUGCCAGUGAAGAAAUGGACAAAGAAAAUCUGGGCCAGGCAGGCAUCAAAAGAAAUAGUCUUGUGCUCAACCAGAAAGUCUGUAAUCAUUUUAAGGGUA [A59G C105U], the self-cleavage came out at 0.17.

On to GUUAACGGUCAUAGGCCAUGGAAACUAGGAGCACCAUUUCGCUGCCAGUGAAGAAAUGGACAAAGAAAAUCUGGGCCAGGCAGGCAUCAAAAGAAAUAGUCUUGCGCUCAAGCAGAAAGUCUGUAAUCAUUUUAAGGGUA [A59G C112G], for which the self-cleavage worked out at 0.03.

Take GUUAACGGUCAUAGGCCAUGGAAACUAGGAGCACCAUUUCGCUGCCAGUGAAGAAAUGGACAAAGAAAAUCUGGGCCAGGCAGGCAUCAGAAGAAAUAGUCUUGCGCUCAACCAGAAAGUCUGUAAUCAUUUUAAGGGUA [A59G A90G]: the self-cleavage amounted to 0.78.
